{"source": "paper PMC4829425", "key": {"[1]": {"biological_target": "VEGFR-2 EC+TM-(GGS)5-YFP or -mCherry (human) (UniProt P35968)"}, "[2]": {"biological_target": "full length wild-type human VEGFR-2 (human) (UniProt P35968)"}, "[3]": {"biological_target": "VEGFR-2 EC(C482R)+TM(N762I-V769I-G770I)-(GGS)5-YFP or -mCherry (human) (UniProt P35968)", "test": "FRET or BRET; QI-FRET between YFP- and mCherry-tagged copies in single plasma membrane-derived vesicles of co-transfected CHO cells, no ligand; monomer-dimer equilibrium model, dimer to monomers; two-dimensional concentrations (receptors per square micron)"}, "[4]": {"biological_target": "VEGFR-2 EC(C482R)+TM-(GGS)5-YFP or -mCherry (human) (UniProt P35968)", "test": "FRET or BRET; QI-FRET between YFP- and mCherry-tagged copies in single plasma membrane-derived vesicles of co-transfected CHO cells, no ligand; monomer-dimer equilibrium model, dimer to monomers; two-dimensional concentrations (receptors per square micron)"}, "[5]": {"biological_target": "VEGFR-2 EC(C482R)+TM-(GGS)5-YFP or -mCherry (human) (UniProt P35968)", "test": "FRET or BRET; QI-FRET in CHO plasma membrane-derived vesicles with 3 ug/ml VEGF-A121, 1 hr at room temperature"}, "[6]": {"biological_target": "VEGFR-2 EC+TM(E764I-T771I-F778I)-(GGS)5-YFP or -mCherry (human) (UniProt P35968)", "test": "FRET or BRET; QI-FRET between YFP- and mCherry-tagged copies in single plasma membrane-derived vesicles of co-transfected CHO cells, no ligand; monomer-dimer equilibrium model, dimer to monomers; two-dimensional concentrations (receptors per square micron)"}, "[7]": {"biological_target": "VEGFR-2 EC+TM(E764I-T771I-F778I)-(GGS)5-YFP or -mCherry (human) (UniProt P35968)", "test": "FRET or BRET; QI-FRET in CHO plasma membrane-derived vesicles with 3 ug/ml VEGF-A121, 1 hr at room temperature"}, "[8]": {"biological_target": "VEGFR-2 EC+TM(N762I-V769I-G770I)-(GGS)5-YFP or -mCherry (human) (UniProt P35968)", "test": "FRET or BRET; QI-FRET in CHO plasma membrane-derived vesicles with 3 ug/ml VEGF-A121, 1 hr at room temperature"}, "[9]": {"biological_target": "VEGFR-2 EC+TM-(GGS)5-YFP or -mCherry (human) (UniProt P35968)", "test": "FRET or BRET; QI-FRET in CHO plasma membrane-derived vesicles with 3 ug/ml VEGF-A165b, 1 hr at room temperature"}, "[10]": {"biological_target": "VEGFR-2 EC+TM-(GGS)5-YFP or -mCherry (human) (UniProt P35968)", "test": "FRET or BRET; QI-FRET in CHO plasma membrane-derived vesicles with 3 ug/ml VEGF-A165a, 1 hr at room temperature"}, "[11]": {"biological_target": "VEGFR-2 EC+TM-(GGS)5-YFP or -mCherry (human) (UniProt P35968)", "test": "FRET or BRET; QI-FRET in CHO plasma membrane-derived vesicles with 3 ug/ml VEGF-A121, 1 hr at room temperature"}, "[12]": {"biological_target": "VEGFR-2 EC+TM-(GGS)5-YFP or -mCherry (human) (UniProt P35968)", "test": "FRET or BRET; QI-FRET in CHO plasma membrane-derived vesicles with 3 ug/ml VEGF-E, 1 hr at room temperature"}, "[13]": {"biological_target": "VEGFR-2 EC+TM-(GGS)5-YFP or -mCherry (human) (UniProt P35968)", "test": "FRET or BRET; QI-FRET in CHO plasma membrane-derived vesicles with 3 ug/ml VEGF-C, 1 hr at room temperature"}, "[14]": {"biological_target": "VEGFR-2 EC+TM-(GGS)5-YFP or -mCherry (human) (UniProt P35968)", "test": "FRET or BRET; QI-FRET in CHO plasma membrane-derived vesicles with 3 ug/ml VEGF-D, 1 hr at room temperature"}}}
{"substance": "VEGF-E (ligand)", "values": [{"measurement": "Intrinsic FRET of the EC+TM dimer (YFP/mCherry) with 3 ug/ml ligand; 0.61 without ligand", "setting": "[1]", "result": 0.44}, {"measurement": "phosphorylation of full-length VEGFR-2 (Tyr 1175, Western blot) with 3 ug/ml ligand against no ligand", "setting": "[2]", "result": "< 10", "unit": "fold"}]}
{"substance": "VEGFR-2 EC(C482R)+TM(N762I-V769I-G770I)-(GGS)5-YFP or -mCherry (from UniProt P35968 20-1356) (domain or fragment)", "values": [{"measurement": "percent dimer", "setting": "[3]", "result": 100, "unit": "%"}]}
{"substance": "VEGFR-2 EC(C482R)+TM-(GGS)5-YFP or -mCherry (from UniProt P35968 20-1356) (domain or fragment)", "values": [{"measurement": "percent dimer", "setting": "[4]", "result": 100, "unit": "%"}, {"measurement": "percent dimer", "setting": "[5]", "result": 100, "unit": "%"}]}
{"substance": "VEGFR-2 EC+TM(E764I-T771I-F778I)-(GGS)5-YFP or -mCherry (from UniProt P35968 20-1356) (domain or fragment)", "values": [{"measurement": "percent dimer", "setting": "[6]", "result": 100, "unit": "%"}, {"measurement": "percent dimer", "setting": "[7]", "result": 100, "unit": "%"}]}
{"substance": "VEGFR-2 EC+TM(N762I-V769I-G770I)-(GGS)5-YFP or -mCherry (from UniProt P35968 20-1356) (domain or fragment)", "values": [{"measurement": "percent dimer", "setting": "[8]", "result": 100, "unit": "%"}]}
{"substance": "VEGFR-2 EC+TM-(GGS)5-YFP or -mCherry (from UniProt P35968 20-1356) (domain or fragment)", "values": [{"measurement": "percent dimer", "setting": "[9]", "result": 100, "unit": "%"}, {"measurement": "percent dimer", "setting": "[10]", "result": 100, "unit": "%"}, {"measurement": "percent dimer", "setting": "[11]", "result": 100, "unit": "%"}, {"measurement": "percent dimer", "setting": "[12]", "result": 100, "unit": "%"}, {"measurement": "percent dimer", "setting": "[13]", "result": 100, "unit": "%"}, {"measurement": "percent dimer", "setting": "[14]", "result": 100, "unit": "%"}]}
{"substance": "human VEGF-C (from UniProt P49767 112-227) (ligand)", "values": [{"measurement": "Intrinsic FRET of the EC+TM dimer (YFP/mCherry) with 3 ug/ml ligand; 0.61 without ligand", "setting": "[1]", "result": 0.45}, {"measurement": "phosphorylation of full-length VEGFR-2 (Tyr 1175, Western blot) with 3 ug/ml ligand against no ligand", "setting": "[2]", "result": "< 10", "unit": "fold"}]}
{"substance": "human VEGF-D (from UniProt O43915 89-205) (ligand)", "values": [{"measurement": "Intrinsic FRET of the EC+TM dimer (YFP/mCherry) with 3 ug/ml ligand; 0.61 without ligand", "setting": "[1]", "result": 0.43}, {"measurement": "phosphorylation of full-length VEGFR-2 (Tyr 1175, Western blot) with 3 ug/ml ligand against no ligand", "setting": "[2]", "result": "< 10", "unit": "fold"}]}
